In patent US20040029228A1:

Tests used:
Assay in all cases: cell-based or functional assay
[1] = molecular target: T1, human zcytor19 (Zyctor19) cytokine receptor (human)
T1 sequence (Q8IU57 1-520, looked up): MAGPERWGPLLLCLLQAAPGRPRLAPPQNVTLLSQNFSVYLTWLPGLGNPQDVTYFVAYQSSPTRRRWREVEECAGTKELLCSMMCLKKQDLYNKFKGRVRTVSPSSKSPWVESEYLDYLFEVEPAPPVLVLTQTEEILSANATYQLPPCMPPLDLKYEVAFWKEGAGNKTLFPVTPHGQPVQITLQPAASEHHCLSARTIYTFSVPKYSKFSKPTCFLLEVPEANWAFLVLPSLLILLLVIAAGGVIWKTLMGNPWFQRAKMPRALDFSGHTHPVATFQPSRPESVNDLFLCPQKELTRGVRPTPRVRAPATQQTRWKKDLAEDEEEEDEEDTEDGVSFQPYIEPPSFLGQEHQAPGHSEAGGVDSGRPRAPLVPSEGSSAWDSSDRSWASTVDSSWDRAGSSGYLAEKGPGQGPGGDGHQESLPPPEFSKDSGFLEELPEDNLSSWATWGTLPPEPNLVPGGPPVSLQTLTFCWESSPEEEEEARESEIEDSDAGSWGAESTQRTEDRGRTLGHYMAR

[2] = molecular target: zcytoR19 and IL10Rb (CRF2-4) co-expressed on cells (heterodimeric receptor) (human)
[3] = molecular target: human CRF2-4 (IL10Rb) (human)
human CRF2-4 (IL10Rb) (human), sequence (Q08334 whole entry): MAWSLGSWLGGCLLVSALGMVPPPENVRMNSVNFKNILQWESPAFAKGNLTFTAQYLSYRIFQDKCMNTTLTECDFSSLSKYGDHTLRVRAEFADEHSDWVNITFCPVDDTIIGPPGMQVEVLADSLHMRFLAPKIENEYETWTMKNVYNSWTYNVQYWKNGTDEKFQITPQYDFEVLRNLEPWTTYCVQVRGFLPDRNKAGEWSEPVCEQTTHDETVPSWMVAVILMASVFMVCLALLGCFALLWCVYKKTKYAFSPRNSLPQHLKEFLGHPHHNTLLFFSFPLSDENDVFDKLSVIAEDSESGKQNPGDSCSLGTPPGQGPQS

ISRE-luciferase fold induction, 293 cells transfected with ISRE-Luc./Zcytor19, Zcyto22 125 ng/ml (fold induction) [1]: 104
ISRE-luciferase fold induction, BHK cells transfected with zcytoR19 alone, zcyto22 0.001 ng/ml (fold induction) [1]: 1.2
ISRE-luciferase fold induction, BHK cells transfected with zcytoR19 alone, zcyto22 0.01 ng/ml (fold induction) [1]: 1.2
ISRE-luciferase fold induction, BHK cells transfected with zcytoR19 alone, zcyto22 0.1 ng/ml (fold induction) [1]: 1.1
ISRE-luciferase fold induction, BHK cells transfected with zcytoR19 alone, zcyto22 1 ng/ml (fold induction) [1]: 1.5
ISRE-luciferase fold induction, BHK cells transfected with zcytoR19 alone, zcyto22 10 ng/ml (fold induction) [1]: 1.9
ISRE-luciferase fold induction, BHK cells transfected with zcytoR19 alone, zcyto22 100 ng/ml (fold induction) [1]: 2
ISRE-luciferase fold induction, BHK cells transfected with zcytoR19 alone, zcyto22 1000 ng/ml (fold induction) [1]: 1.8
ISRE-luciferase fold induction, BHK cells transfected with zcytoR19 and IL10Rb (CRF2-4), zcyto22 0.001 ng/ml (fold induction) [2]: 1.3
ISRE-luciferase fold induction, BHK cells transfected with zcytoR19 and IL10Rb (CRF2-4), zcyto22 0.01 ng/ml (fold induction) [2]: 1.7
ISRE-luciferase fold induction, BHK cells transfected with zcytoR19 and IL10Rb (CRF2-4), zcyto22 0.1 ng/ml (fold induction) [2]: 2.4
ISRE-luciferase fold induction, BHK cells transfected with zcytoR19 and IL10Rb (CRF2-4), zcyto22 1 ng/ml (fold induction) [2]: 2.7
ISRE-luciferase fold induction, BHK cells transfected with zcytoR19 and IL10Rb (CRF2-4), zcyto22 10 ng/ml (fold induction) [2]: 2.7
ISRE-luciferase fold induction, BHK cells transfected with zcytoR19 and IL10Rb (CRF2-4), zcyto22 100 ng/ml (fold induction) [2]: 2.2
ISRE-luciferase fold induction, BHK cells transfected with zcytoR19 and IL10Rb (CRF2-4), zcyto22 1000 ng/ml (fold induction) [2]: 2.2
ISRE-luciferase fold induction, wild-type 293 cells, Zcyto22 0.01 ng/ml (fold induction) [3]: 0.9
ISRE-luciferase fold induction, wild-type 293 cells, Zcyto22 0.01 ng/ml + IL10Rb neutralizing Antibody (fold induction) [3]: 0.9
ISRE-luciferase fold induction, wild-type 293 cells, Zcyto22 0.1 ng/ml (fold induction) [3]: 1.2
ISRE-luciferase fold induction, wild-type 293 cells, Zcyto22 0.1 ng/ml + IL10Rb neutralizing Antibody (fold induction) [3]: 0.8
ISRE-luciferase fold induction, wild-type 293 cells, Zcyto22 1 ng/ml (fold induction) [3]: 1.8
ISRE-luciferase fold induction, wild-type 293 cells, Zcyto22 1 ng/ml + IL10Rb neutralizing Antibody (fold induction) [3]: 0.8
ISRE-luciferase fold induction, wild-type 293 cells, Zcyto22 10 ng/ml (fold induction) [3]: 8
ISRE-luciferase fold induction, wild-type 293 cells, Zcyto22 10 ng/ml + IL10Rb neutralizing Antibody (fold induction) [3]: 1
ISRE-luciferase fold induction, wild-type 293 cells, Zcyto22 100 ng/ml (fold induction) [3]: 11
ISRE-luciferase fold induction, wild-type 293 cells, Zcyto22 100 ng/ml + IL10Rb neutralizing Antibody (fold induction) [3]: 1.2
B1: zcyto22 (ligand)
chain: MTGDCMPVLVLMAAVLTVTGAVPVARLRGALPDARGCHIAQFKSLSPQELQAFKRAKDALEESLLLKDCKCRSRLFPRTWDLRQLQVRERPVALEAELALTLKVLEATADTDPALGDVLDQPLHTLHHILSQLRACVSRQGPGTQIQPQPTAGPRTRGRLHHWLHRLQEAPKKESPGCLEASVTFNLFRLLTRDLNCVASGDLCV
